According to PMC3177193 (Nucleic Acids Research, 2011):

T1: Arabidopsis SERRATE core (SE core, residues 194-543), hexahistidine-tagged (Arabidopsis thaliana, UniProt Q9ZVD0 194-543)
T1 sequence (looked up): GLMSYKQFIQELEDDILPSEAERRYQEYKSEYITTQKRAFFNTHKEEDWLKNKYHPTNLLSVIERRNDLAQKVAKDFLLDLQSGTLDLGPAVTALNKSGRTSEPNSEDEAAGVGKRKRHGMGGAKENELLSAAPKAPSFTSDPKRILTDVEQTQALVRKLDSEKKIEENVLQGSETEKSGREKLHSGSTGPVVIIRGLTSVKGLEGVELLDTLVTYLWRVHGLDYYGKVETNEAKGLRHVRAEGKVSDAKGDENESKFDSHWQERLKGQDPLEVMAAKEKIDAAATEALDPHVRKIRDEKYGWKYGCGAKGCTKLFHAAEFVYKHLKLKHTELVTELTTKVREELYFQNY

T2: GST-fused SE Middle domain (SE-Mid, residues 248-470) (Arabidopsis thaliana, UniProt Q9ZVD0 248-470)
T2 sequence (looked up): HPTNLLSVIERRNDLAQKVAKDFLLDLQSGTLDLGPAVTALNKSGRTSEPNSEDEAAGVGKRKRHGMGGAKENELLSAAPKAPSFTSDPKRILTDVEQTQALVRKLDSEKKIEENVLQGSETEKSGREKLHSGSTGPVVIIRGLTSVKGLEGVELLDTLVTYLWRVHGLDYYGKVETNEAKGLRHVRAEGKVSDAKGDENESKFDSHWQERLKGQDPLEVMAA


Key:
[1] = biological target: T1, Arabidopsis SERRATE core (SE core, …); test: pull-down
[2] = biological target: T2, GST-fused SE Middle domain (SE-Mid, …); test: pull-down

| binding result [1] | binding result [2] | Binder |
| --- | --- | --- |
| binds |  | GST-fused HYL1 RBD1+2 (residues 15-172) (domain or fragment, Arabidopsis thaliana, UniProt O04492 15-172, looked up) VFKSRLQEYAQKYKLPTPVYEIVKEGPSHKSLFQSTVILDGVRYNSLPGFFNRKAAEQSAAEVALRELAKSSELSQCVSQPVHETGLCKNLLQEYAQKMNYAIPLYQCQKVETLGRVTQFTCTVEIGGIKYTGAATRTKKDAEISAGRTALLAIQSDT |
| binds |  | GST-fused HYL1 RBD2 (residues 100-172) (domain or fragment, Arabidopsis thaliana, UniProt O04492 100-172, looked up) GLCKNLLQEYAQKMNYAIPLYQCQKVETLGRVTQFTCTVEIGGIKYTGAATRTKKDAEISAGRTALLAIQSDT |
|  | binds | Non-tagged HYL1 RBD2 (residues 100-172) (domain or fragment, Arabidopsis thaliana, UniProt O04492 100-172, looked up) GLCKNLLQEYAQKMNYAIPLYQCQKVETLGRVTQFTCTVEIGGIKYTGAATRTKKDAEISAGRTALLAIQSDT |
